Experimental data as given in US20110059887A1.

Target: Human IGF Receptor (Type I IGF receptor) (human) (UniProt P08069)
Assay: microtiter plate antibody capture competition assay with IGF Type I receptor

Sequence of Human IGF Receptor (Type I IGF receptor) (human) (P08069 31-1367 limits assumed): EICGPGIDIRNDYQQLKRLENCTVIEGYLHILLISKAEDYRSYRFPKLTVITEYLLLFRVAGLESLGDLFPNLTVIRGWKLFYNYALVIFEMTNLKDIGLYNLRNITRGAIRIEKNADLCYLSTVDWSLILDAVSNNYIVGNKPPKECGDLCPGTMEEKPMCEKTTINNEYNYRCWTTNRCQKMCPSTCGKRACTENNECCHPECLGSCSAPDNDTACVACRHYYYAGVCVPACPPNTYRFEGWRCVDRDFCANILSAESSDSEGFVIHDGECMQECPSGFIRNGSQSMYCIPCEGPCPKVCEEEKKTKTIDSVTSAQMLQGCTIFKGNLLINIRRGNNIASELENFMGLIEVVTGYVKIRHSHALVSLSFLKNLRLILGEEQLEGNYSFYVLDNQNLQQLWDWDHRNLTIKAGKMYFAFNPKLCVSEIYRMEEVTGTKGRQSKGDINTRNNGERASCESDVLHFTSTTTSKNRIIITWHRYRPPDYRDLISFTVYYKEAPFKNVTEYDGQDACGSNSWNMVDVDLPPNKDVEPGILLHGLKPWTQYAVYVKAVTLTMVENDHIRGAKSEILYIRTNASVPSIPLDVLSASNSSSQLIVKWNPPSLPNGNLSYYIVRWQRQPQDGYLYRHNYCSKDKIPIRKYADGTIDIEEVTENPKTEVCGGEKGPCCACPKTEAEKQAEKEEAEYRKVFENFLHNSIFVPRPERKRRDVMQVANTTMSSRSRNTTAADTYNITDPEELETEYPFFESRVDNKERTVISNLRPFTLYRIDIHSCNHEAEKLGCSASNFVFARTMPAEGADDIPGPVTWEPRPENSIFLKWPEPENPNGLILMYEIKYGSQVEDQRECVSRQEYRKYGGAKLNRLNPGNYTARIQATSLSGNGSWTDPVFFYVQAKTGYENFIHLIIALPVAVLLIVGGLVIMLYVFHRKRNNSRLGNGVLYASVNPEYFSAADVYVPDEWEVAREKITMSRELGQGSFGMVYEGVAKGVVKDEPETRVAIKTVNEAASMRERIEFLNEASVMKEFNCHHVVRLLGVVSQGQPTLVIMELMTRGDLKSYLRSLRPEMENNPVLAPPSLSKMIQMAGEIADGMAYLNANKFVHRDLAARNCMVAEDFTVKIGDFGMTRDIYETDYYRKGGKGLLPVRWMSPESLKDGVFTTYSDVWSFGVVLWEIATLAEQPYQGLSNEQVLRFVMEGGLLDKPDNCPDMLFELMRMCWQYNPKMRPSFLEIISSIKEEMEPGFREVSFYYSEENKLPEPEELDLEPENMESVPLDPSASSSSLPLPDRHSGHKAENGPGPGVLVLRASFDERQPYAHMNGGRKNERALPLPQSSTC

Affinity for IGFR (compared to that of human insulin): 90
Substance: KP-insulin (SEQ. ID. NOS. 2 & 4) (ligand; other documents disagree on this pair)
